{"source": "paper PMC11607802", "target": "Butelase AY (Butelase 1 V237A/T238Y), zymogenic form before activation (Clitoria ternatea)", "test": "SEC"}
{"substance": "Butelase AY (Butelase 1 V237A/T238Y), zymogenic form before activation (enzyme)", "values": [{"measurement": "stoichiometry N", "result": 2}]}
